According to patent US20110130444:

What was measured:
Assay in all cases: cell_activity
piggyBac transposase = settings: HEK293 transposition; 9.8 CHO, 14.5 HeLa, 5.7 H1299; excision PCR positive
Tol2 transposase = settings: HEK293 transposition; 3.3 CHO, 5.4 HeLa, 4.1 H1299
[1] = test system: Sleeping Beauty SB11 transposase; settings: HEK293 transposition; 2.9 CHO, 2.7 HeLa, 1.0 (inactive) H1299; excision PCR positive

In the case of “TGATTATCTTTCTAGGG (double strand) [piggyBac terminal repeat donor (printed repeat end)]”, the activity (fold over control) (piggyBac transposase) is reported as 115.

Tol2 terminal repeat donor plasmid was tested, and the activity (fold over control) (Tol2 transposase) was 93.9.

Work on “Sleeping Beauty terminal repeat donor plasmid” yielded an activity (fold over control) [1] of 8.1.
